We go through nine substances from patent EP1086117B1.

The target of assay [1] is human motilin receptor spliced form A (MTL-R1A) (human). Nature of the assay: cell-based or functional assay.
The target is the same in assay [2]. The assay is described as follows: displacement of [125I] human motilin from crude membranes of MTL-R1A transfected HEK-293/aeq17 cells. Background: In a radioligand displacement assay an active substance lowers the binding of a labelled ligand.
Assay [3] has the same target. Nature of the assay: direct radioligand binding on cell membranes of MTL-R1A transfected cells.

By IC50 is commonly meant the midpoint of a concentration-inhibition curve. Low readings indicate greater potency in that assay, high ones weaker potency in that assay. As a reminder, the Kd is the equilibrium constant for the complex coming apart. Low readings indicate higher affinity, high ones lower affinity.

With “1-11 MTL (from UniProt P12872 26-36) (peptide)”, in assay [1], the Aequorin Assay (EC50 nM) was found to be 138 nM. This substance also had a half-inhibitory concentration (IC50) in assay [2] of 127 nM.
As for “10-22 MTL (from UniProt P12872 35-47) (peptide)”, in assay [1], the Aequorin Assay (EC50 nM) was over 10000 nM. For the same substance, the IC50 in assay [2] was 1100 nM.
For “1-19 MTL (from UniProt P12872 26-44) (peptide)” the same measures were 4.1 nM and 0.3 nM.
In assay [1], “1-13 MTL (from UniProt P12872 26-38) (peptide)” showed an Aequorin Assay (EC50 nM) of 3.8 nM. In assay [2], this substance gave a 50% inhibitory concentration (IC50) of 0.9 nM.
The corresponding values for “1-12 MTL (from UniProt P12872 26-37) (peptide)” are 72 nM and 14 nM.
Regarding “[125I]-Tyr7-human motilin (from UniProt P12872 26-47) (peptide)”, in assay [3], the Bmax (fmol/mg protein) is 240 and the Kd was 0.1 nM.
In assay [1], “human motilin (MTL) (from UniProt P12872 26-47) (peptide)” registered an Aequorin Assay (EC50 nM) of 2.1 nM and a bioluminescent response, aequorin assay, 100 nM peptide (fold over background) of over 4. The same substance had an IC50 in assay [2] of 0.5 nM.
“canine motilin (from UniProt P19863 1-22) (peptide)”: the Aequorin Assay (EC50 nM) in assay [1] amounted to 4.4 nM. In addition, in assay [2], the IC50 came to 0.2 nM.
For “Leu 13 MTL (from UniProt P12872 26-115) (peptide)” the same measures were 3.9 nM and 0.2 nM.
